From the nanobody polyreactivity screen of Harvey et al. (2022)

assay: yeast display, Sf9 membrane polyspecificity reagent, FACS + sequencing; frameworks hold sequencing errors
Summary of the method: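 Nanobodies came from a synthetic yeast display library in Saccharomyces cerevisiae BJ5465, induced with galactose for 36–48 hours and stained for 1 hour at 4 °C with 10% biotinylated, detergent-solubilized Sf9 membrane reagent. Cells were enriched on streptavidin microbeads and then FACS-sorted, with low and high (top ~1%) gates set on anti-HA fluorescence for expression and streptavidin fluorescence for reagent binding. Each polyreactivity label reflects the gate a clone came from. Genes were amplified by colony PCR, sequenced by MiSeq 2 × 250 and filtered by CDR length.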

Sequence	polyreactivity (PSR sort gate)
QVQLQESGGGLVQGGGSLRLSCAASGSIYRYWYMGWYRQAPGKERELVASITEGATTNYAYSVKAALPLAAITRNTVYLQMDSMKPEDTAVYYRAASFGSTYDLVYWGQGTQVTVSS	high polyreactivity
QVQLQESGGGLVQPGGSLRLSCAASGYISSWYPMGWYPQAPGKEREFVATIAPGATTYYADSVKGRFTISRDYANNTVYLQMNSLKPEDTAVYYLAAGPENKDFYSYWCQGTQVTVSS	low polyreactivity
QVQLQESGGGLVQVGGSQRLSCAASGNIFFNYAMGWYRHAQGKEREFDASINHGTSINYEDSVKGRFTISRDNAKNTVYLQMNSLKPEDTAVYYCAADLSWTDNLFYWGQGTQVTVSS	low polyreactivity
QVQLQESGGGLVQVGVSQRLSCAASGNIFYNYAMGWYRHAQGKEREFDATINHCTSINYADSVKGLFTISRDNAKKTVYLQMNSLKPEDTAVYYCAADLSWTDNLFYWGQGTQVTVSS	low polyreactivity
QVQLQESGGGQVQAGGSLRLSCAASGYISTHYFMGWYRQAPGKDREFVAGISNGSITNYADSVKGRFTISRDNARNTVYLQMNSLKPEDTAVYYGAAFEWTYVRFGYWGQGTQVTVSG	high polyreactivity
QVQLQESGGGQVQAGGSLRWSCAASGYISTHYFMGWYRQAPGKDREFVAGISNGSITNYADSVKGRFTISRDNARNTVYLQMNSLKPEDTAVYYVAAYQWTYVRFGYWGQGTQVTVSG	high polyreactivity
QVQLQESGGHLEQSGGSLRLSCTASGTISDVRVMGWYRQAPGKERELVATISYVTITYYADSVKGRFTISRDSEKHRVSADDEPETGRYRGVLLRYYWGLGTQVTVSS	low polyreactivity
QVQLQESGGLVQAGGLRLSCAASGSVSYQEAMGWYRQAPGKERELVATISFGANTNYADSVKGRFTISRDNAKNTVYLQMNSLKPEDTAVYYCAADAYRWWVRYDYWGQGTQVTVSS	low polyreactivity
QVQLQESGGLVQAGGLRLSCAASGSVSYQEAMGWYRQAPGKERELVATISFGANTNYAESVKGRFTISRDNAKISLYLQMNSLQPEDTSLYYWAAECLFDDYYGYWGQGTQVTVSS	low polyreactivity
QVQLQESGGLVQAGGLRLSCAASGSVSYQEAMGWYRQSPGKERELVATISFGANTNYADSVKGRFTISRDNAKNTVYLQMNSLKPEDTAVYYCAAESLFDDYYGYWGQGTQVTVSS	low polyreactivity
QVQLQESGGLVQAGGSLRLSCAASGSISGRNVMGWYRQAPGKEREFVASITDGSSTNDADSVIGRFTISRDNAKNTVYLQMNSLKPKDTAVYYCAAYAHRAKSFGYWGRGTQVTVSS	low polyreactivity
QVQLQESGGRLVQAGGSLRLSCAPSGDILEADDMGWYRQAPGKERELVASITDGGSTNCADSMKGRSTICRDNAKITVYLQMNSLKPEDTAVYYCAADAWDLYSDGQEYNYWGQGTQVTVSS	high polyreactivity
QVQLQESGGSLVQAGGILRLSCAACGNIFPSAVMGWYRQALGKEREFVATINSGSYTYYADSVKVRFTISRDNAKNTVYLQMNSLKLDDSAVYYCAAYFKLPAWHTYWGQGTQVTVSS	low polyreactivity
QVQLQESGGVLVQAVDRQRLSCAASGNIFLFTDMGWYRQAPGKERELVAAINAGSTTYYADSVKGRFTISRDNAKNTVYLQMNSLNPEDTEVYYCAVYYLGSGTFGYWGQGAQVTVSS	high polyreactivity
QVQLQESGGVQAGGSLRLSCAASGYISRSDVMGWYRQAPVKERELVATINNGTLTYYADSVKGRFTISRDNAKNTVYLQMNSLKPEDTPVHYCAVLQSDTDSLYYWGQGSQVTVSS	low polyreactivity
QVQLQESGRGLVQAGGSLLSCAASGTISWVDEMGWYRHAPGNERELVAGIAGGGNTNYADSLKGRFTISRDNAKNTVYLHMNSQDTAVYYCAVVVFGRGTHIYWCQGTQVTVSS	high polyreactivity
QVQLQESGRRPGAAGGSPRMSCAASGNIFCVAVMGRYRQAPGKERELVASIGFGCTTYYADSVKCRFTISRDNAKNTVYLQMFSLKPEDTAVYYCAAPHYDWGELDYWGQGTQVPVSS	low polyreactivity
